# Reference: the supplement of paper PMC10065799, “High-throughput profiling of sequence recognition by tyrosine kinases and SH2 domains using bacterial peptide display” (eLife, 2023)
# Columns and labels:
# Fer (mouse) = assay: phosphorylation enrichment, bacterial display (enrichment ratio); higher = better substrate or ligand; peptides without Tyr show the background
# EPHB1 = EPHB1 (UniProt P54762); assay: as above
# MERTK = MERTK (UniProt Q12866); assay: as above
# c-Src = assay: as above
# EPHB2 = EPHB2 (UniProt P29323); assay: as above
# Jak2 = Jak2 (UniProt O60674); assay: as above
# FGFR3 = FGFR3 (UniProt P22607); assay: as above
# Chain of FGFR3 (P22607 whole entry, looked up): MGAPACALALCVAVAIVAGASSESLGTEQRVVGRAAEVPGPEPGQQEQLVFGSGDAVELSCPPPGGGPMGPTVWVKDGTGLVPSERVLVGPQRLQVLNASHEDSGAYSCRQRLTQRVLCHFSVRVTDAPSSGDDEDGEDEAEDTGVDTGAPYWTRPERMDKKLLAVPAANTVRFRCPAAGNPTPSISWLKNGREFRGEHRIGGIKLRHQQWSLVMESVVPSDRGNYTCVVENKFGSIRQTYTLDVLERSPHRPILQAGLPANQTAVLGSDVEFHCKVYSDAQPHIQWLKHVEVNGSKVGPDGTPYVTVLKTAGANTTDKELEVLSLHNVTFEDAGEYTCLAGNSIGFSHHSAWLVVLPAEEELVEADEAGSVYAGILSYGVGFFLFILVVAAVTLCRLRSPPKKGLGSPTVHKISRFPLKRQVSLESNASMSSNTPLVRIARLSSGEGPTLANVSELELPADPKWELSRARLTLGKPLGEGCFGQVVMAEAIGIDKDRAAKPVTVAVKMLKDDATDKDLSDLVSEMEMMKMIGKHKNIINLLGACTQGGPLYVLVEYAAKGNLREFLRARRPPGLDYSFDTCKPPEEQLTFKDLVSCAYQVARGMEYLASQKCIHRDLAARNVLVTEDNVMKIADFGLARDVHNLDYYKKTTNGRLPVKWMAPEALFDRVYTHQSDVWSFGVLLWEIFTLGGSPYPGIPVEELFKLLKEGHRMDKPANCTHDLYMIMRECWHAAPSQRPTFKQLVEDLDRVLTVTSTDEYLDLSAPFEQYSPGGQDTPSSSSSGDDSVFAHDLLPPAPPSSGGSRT
# FGFR1 = FGFR1 (UniProt P11362); assay: as above
# AncSZ = assay: as above
# Fyn = Fyn (UniProt P06241); assay: as above
# Chain of Fyn (P06241 whole entry, looked up): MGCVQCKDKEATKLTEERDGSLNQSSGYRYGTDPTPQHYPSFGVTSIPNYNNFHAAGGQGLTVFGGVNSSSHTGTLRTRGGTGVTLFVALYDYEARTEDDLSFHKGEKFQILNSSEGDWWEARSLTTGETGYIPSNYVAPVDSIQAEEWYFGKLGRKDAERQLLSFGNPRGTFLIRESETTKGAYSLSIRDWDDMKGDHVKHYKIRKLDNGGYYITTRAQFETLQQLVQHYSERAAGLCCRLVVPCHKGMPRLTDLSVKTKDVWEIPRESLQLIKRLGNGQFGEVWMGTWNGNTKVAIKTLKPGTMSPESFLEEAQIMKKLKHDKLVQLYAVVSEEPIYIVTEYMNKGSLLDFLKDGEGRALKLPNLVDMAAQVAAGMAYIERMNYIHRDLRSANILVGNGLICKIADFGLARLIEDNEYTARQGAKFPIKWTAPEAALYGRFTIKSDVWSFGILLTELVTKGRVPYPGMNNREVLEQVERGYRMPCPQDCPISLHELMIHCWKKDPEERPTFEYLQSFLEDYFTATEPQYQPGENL
# c-Abl (mouse) = assay: as above
# Hck = Hck (UniProt P08631); assay: as above
# Chain of Hck (P08631 whole entry, looked up): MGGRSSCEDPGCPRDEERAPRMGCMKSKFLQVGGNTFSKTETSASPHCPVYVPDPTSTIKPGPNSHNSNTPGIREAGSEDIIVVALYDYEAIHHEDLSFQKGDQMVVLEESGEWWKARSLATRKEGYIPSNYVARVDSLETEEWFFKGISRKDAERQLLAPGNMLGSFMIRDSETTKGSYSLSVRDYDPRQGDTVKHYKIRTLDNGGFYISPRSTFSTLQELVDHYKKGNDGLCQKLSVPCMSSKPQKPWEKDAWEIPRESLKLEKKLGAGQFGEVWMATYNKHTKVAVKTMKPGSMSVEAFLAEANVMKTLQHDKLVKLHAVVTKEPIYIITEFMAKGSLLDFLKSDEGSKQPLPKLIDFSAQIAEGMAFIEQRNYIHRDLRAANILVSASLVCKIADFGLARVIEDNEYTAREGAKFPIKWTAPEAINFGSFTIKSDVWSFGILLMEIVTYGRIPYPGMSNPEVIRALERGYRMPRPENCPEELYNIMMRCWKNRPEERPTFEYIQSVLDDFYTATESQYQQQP
# Fes = Fes (UniProt P07332); assay: as above
# Chain of Fes (P07332 whole entry, looked up): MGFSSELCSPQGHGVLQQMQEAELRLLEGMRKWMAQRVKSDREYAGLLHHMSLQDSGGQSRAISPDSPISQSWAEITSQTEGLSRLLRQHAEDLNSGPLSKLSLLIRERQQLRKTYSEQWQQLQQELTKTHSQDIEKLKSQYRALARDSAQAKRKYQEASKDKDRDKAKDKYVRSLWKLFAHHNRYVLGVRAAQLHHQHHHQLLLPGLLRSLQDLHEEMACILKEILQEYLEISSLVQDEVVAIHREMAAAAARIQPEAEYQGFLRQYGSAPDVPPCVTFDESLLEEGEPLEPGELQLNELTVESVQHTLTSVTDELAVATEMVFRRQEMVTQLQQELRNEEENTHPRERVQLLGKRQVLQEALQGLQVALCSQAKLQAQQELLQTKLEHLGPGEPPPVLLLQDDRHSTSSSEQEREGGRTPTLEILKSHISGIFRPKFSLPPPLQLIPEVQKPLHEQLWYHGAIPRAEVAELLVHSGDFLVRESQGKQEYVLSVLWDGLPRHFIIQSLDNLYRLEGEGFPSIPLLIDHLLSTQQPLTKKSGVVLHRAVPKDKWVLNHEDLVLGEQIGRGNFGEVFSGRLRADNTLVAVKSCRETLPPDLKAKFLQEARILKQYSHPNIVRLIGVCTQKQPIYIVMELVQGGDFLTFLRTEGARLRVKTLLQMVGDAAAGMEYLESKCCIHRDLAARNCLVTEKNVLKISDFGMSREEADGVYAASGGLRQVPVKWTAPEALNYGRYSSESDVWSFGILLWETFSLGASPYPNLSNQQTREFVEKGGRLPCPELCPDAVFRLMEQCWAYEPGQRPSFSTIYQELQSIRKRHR
# Grb2 SH2 = Grb2 SH2 (UniProt P62993); assay: SH2 binding enrichment of the phosphorylated peptide, bacterial display (enrichment ratio); higher = better substrate or ligand; peptides without Tyr show the background
# Chain of Grb2 SH2 (P62993 whole entry, looked up): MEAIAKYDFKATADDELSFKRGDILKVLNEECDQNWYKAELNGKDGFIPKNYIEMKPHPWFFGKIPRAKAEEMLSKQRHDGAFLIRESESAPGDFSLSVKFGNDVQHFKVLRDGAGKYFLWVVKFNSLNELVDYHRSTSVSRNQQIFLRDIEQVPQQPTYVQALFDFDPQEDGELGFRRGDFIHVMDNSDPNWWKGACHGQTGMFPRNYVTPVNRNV
# SHP2-C SH2 = assay: as above
# c-Src SH2 = assay: as above
# 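For SH2 binding enrichment of the phosphorylated peptide, bacterial display in this document: peptide library displayed on the E. coli surface as eCPX fusions, selected cells deep-sequenced, score is each peptide's frequency after selection divided by its frequency in the input.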
# 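For phosphorylation enrichment, bacterial display in this document: 11-residue human phosphosite peptides and single-mutation variants displayed on the E. coli surface, counted by deep sequencing, each peptide's frequency after selection divided by its frequency in the unselected input library; frequency after pTyr selection over input frequency; kinase dosed for 20-30% of maximal phosphorylation in three min.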
# Chain of MERTK (Q12866 whole entry, looked up): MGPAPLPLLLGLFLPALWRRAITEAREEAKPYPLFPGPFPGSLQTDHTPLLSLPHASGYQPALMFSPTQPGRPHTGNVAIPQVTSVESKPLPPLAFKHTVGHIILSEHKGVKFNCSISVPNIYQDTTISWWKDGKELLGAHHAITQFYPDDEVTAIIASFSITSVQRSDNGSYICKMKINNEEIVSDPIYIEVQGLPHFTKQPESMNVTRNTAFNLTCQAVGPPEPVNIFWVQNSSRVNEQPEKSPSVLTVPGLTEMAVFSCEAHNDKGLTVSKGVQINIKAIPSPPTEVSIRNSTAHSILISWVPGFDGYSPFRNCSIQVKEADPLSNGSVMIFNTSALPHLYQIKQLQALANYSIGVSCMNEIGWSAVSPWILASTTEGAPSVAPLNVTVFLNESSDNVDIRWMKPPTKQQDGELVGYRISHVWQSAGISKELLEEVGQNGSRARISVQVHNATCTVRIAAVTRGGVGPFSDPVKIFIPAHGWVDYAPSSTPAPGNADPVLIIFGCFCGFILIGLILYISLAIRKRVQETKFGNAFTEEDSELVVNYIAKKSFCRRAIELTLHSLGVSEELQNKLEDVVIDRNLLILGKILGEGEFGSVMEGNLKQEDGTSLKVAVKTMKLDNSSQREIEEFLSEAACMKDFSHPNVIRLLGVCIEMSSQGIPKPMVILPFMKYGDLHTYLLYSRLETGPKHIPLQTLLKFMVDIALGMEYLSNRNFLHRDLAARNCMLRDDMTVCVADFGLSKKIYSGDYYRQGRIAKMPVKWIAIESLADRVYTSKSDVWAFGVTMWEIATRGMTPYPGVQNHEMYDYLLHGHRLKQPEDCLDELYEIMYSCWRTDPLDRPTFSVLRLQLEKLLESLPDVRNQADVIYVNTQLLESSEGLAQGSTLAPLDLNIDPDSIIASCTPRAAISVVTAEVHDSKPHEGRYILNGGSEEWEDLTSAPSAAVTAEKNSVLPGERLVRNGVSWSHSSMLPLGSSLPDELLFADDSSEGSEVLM
# Chain of EPHB1 (P54762 whole entry, looked up): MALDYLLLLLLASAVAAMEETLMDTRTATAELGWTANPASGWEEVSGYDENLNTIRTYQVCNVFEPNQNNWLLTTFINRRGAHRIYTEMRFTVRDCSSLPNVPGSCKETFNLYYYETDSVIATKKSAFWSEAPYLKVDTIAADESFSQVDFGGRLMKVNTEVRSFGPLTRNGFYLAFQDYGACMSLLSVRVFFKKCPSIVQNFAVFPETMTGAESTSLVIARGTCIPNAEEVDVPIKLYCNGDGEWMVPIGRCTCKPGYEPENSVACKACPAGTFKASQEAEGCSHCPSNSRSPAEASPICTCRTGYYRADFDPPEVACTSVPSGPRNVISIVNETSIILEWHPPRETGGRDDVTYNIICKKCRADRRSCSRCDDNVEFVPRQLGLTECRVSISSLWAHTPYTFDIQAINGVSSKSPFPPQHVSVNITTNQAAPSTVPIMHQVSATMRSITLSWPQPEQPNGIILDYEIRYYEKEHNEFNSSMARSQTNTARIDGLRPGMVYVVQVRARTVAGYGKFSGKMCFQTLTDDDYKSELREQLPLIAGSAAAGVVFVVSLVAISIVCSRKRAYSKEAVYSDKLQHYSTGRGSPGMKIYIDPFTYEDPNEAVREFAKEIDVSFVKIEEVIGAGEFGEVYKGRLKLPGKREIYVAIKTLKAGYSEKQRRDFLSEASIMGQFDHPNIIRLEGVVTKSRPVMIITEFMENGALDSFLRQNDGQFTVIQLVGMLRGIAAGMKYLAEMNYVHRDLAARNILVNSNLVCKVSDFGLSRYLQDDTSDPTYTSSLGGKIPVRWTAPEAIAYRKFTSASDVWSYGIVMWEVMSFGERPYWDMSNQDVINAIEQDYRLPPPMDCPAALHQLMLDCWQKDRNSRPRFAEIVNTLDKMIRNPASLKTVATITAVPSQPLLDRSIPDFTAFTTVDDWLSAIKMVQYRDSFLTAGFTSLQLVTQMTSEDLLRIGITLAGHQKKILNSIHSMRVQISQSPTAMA
sequence,measurement,setting,value
RSIGEYDVLRA [PRKDC_Y2936_G2941A],phosphorylation enrichment,Fer (mouse),0.446
same,phosphorylation enrichment,EPHB1,0.944
same,phosphorylation enrichment,MERTK,0.817
same,phosphorylation enrichment,c-Src,1.17
same,phosphorylation enrichment,EPHB2,1.13
same,phosphorylation enrichment,Jak2,0.703
same,phosphorylation enrichment,FGFR3,0.818
same,phosphorylation enrichment,FGFR1,0.772
same,phosphorylation enrichment,AncSZ,0.887
same,phosphorylation enrichment,Fyn,1.06
same,phosphorylation enrichment,c-Abl (mouse),1.87
same,phosphorylation enrichment,Hck,7.58
same,phosphorylation enrichment,Fes,1.31
same,SH2 binding enrichment,Grb2 SH2,0.81
same,SH2 binding enrichment,SHP2-C SH2,0.441
same,SH2 binding enrichment,c-Src SH2,1.14
CTTIPYNFMCN [TP53_Y234_H233P_YF],phosphorylation enrichment,Fer (mouse),0.424
same,phosphorylation enrichment,EPHB1,0.449
same,phosphorylation enrichment,MERTK,0.482
same,phosphorylation enrichment,c-Src,0.753
same,phosphorylation enrichment,EPHB2,0.514
same,phosphorylation enrichment,Jak2,0.718
same,phosphorylation enrichment,FGFR3,0.726
same,phosphorylation enrichment,FGFR1,0.515
same,phosphorylation enrichment,AncSZ,0.945
same,phosphorylation enrichment,Fyn,0.48
same,phosphorylation enrichment,c-Abl (mouse),0.528
same,phosphorylation enrichment,Hck,0.561
same,phosphorylation enrichment,Fes,0.926
same,SH2 binding enrichment,Grb2 SH2,0.927
same,SH2 binding enrichment,SHP2-C SH2,0.994
same,SH2 binding enrichment,c-Src SH2,2.07
EKNANYKEGTY [CLRN1_Y171_I168N],phosphorylation enrichment,Fer (mouse),0.363
same,phosphorylation enrichment,EPHB1,0.378
same,phosphorylation enrichment,MERTK,0.372
same,phosphorylation enrichment,c-Src,0.426
same,phosphorylation enrichment,EPHB2,0.387
same,phosphorylation enrichment,Jak2,0.575
same,phosphorylation enrichment,FGFR3,0.4
same,phosphorylation enrichment,FGFR1,0.383
same,phosphorylation enrichment,AncSZ,0.517
same,phosphorylation enrichment,Fyn,0.403
same,phosphorylation enrichment,c-Abl (mouse),0.451
same,phosphorylation enrichment,Hck,0.356
same,phosphorylation enrichment,Fes,0.617
same,SH2 binding enrichment,Grb2 SH2,0.963
same,SH2 binding enrichment,SHP2-C SH2,0.774
same,SH2 binding enrichment,c-Src SH2,0.538
LTQRTYMSENN [GPAA1_Y49_A54N],phosphorylation enrichment,Fer (mouse),0.867
same,phosphorylation enrichment,EPHB1,0.783
same,phosphorylation enrichment,MERTK,0.87
same,phosphorylation enrichment,c-Src,0.549
same,phosphorylation enrichment,EPHB2,0.879
same,phosphorylation enrichment,Jak2,0.67
same,phosphorylation enrichment,FGFR3,1.09
same,phosphorylation enrichment,FGFR1,1.13
same,phosphorylation enrichment,AncSZ,1.11
same,phosphorylation enrichment,Fyn,0.479
same,phosphorylation enrichment,c-Abl (mouse),1.01
same,phosphorylation enrichment,Hck,0.703
same,phosphorylation enrichment,Fes,1.46
same,SH2 binding enrichment,Grb2 SH2,0.709
same,SH2 binding enrichment,SHP2-C SH2,0.676
same,SH2 binding enrichment,c-Src SH2,0.442
NHYKIYNLCAE [PTEN_Y68],phosphorylation enrichment,Fer (mouse),0.439
same,phosphorylation enrichment,EPHB1,0.432
same,phosphorylation enrichment,MERTK,0.407
same,phosphorylation enrichment,c-Src,2.05
same,phosphorylation enrichment,EPHB2,0.442
same,phosphorylation enrichment,Jak2,0.493
same,phosphorylation enrichment,FGFR3,0.77
same,phosphorylation enrichment,FGFR1,0.409
same,phosphorylation enrichment,AncSZ,0.579
same,phosphorylation enrichment,Fyn,1.61
same,phosphorylation enrichment,c-Abl (mouse),0.547
same,phosphorylation enrichment,Hck,0.85
same,phosphorylation enrichment,Fes,0.784
same,SH2 binding enrichment,Grb2 SH2,0.941
same,SH2 binding enrichment,SHP2-C SH2,0.826
same,SH2 binding enrichment,c-Src SH2,1.2
RLLVVYPRTQR [HBB_Y36_W38R],phosphorylation enrichment,Fer (mouse),0.619
same,phosphorylation enrichment,EPHB1,0.457
same,phosphorylation enrichment,MERTK,0.658
same,phosphorylation enrichment,c-Src,0.484
same,phosphorylation enrichment,EPHB2,0.81
same,phosphorylation enrichment,Jak2,1.07
same,phosphorylation enrichment,FGFR3,0.525
same,phosphorylation enrichment,FGFR1,0.685
same,phosphorylation enrichment,AncSZ,1.05
same,phosphorylation enrichment,Fyn,0.785
same,phosphorylation enrichment,c-Abl (mouse),0.799
same,phosphorylation enrichment,Hck,0.704
same,phosphorylation enrichment,Fes,1.28
same,SH2 binding enrichment,Grb2 SH2,0.799
same,SH2 binding enrichment,SHP2-C SH2,0.429
same,SH2 binding enrichment,c-Src SH2,0.581
DEYLEHRRIVG [FAM221A_Y20_Y20H],phosphorylation enrichment,Fer (mouse),0.506
same,phosphorylation enrichment,EPHB1,1.95
same,phosphorylation enrichment,MERTK,0.38
same,phosphorylation enrichment,c-Src,0.347
same,phosphorylation enrichment,EPHB2,0.679
same,phosphorylation enrichment,Jak2,0.526
same,phosphorylation enrichment,FGFR3,0.611
same,phosphorylation enrichment,FGFR1,0.6
same,phosphorylation enrichment,AncSZ,0.764
same,phosphorylation enrichment,Fyn,0.399
same,phosphorylation enrichment,c-Abl (mouse),0.434
same,phosphorylation enrichment,Hck,0.489
same,phosphorylation enrichment,Fes,0.883
same,SH2 binding enrichment,Grb2 SH2,0.918
same,SH2 binding enrichment,SHP2-C SH2,0.611
same,SH2 binding enrichment,c-Src SH2,0.484
DKWFLYKMRDI [CPS1_Y879],phosphorylation enrichment,Fer (mouse),0.505
same,phosphorylation enrichment,EPHB1,0.671
same,phosphorylation enrichment,MERTK,0.311
same,phosphorylation enrichment,c-Src,0.403
same,phosphorylation enrichment,EPHB2,0.57
same,phosphorylation enrichment,Jak2,1.32
same,phosphorylation enrichment,FGFR3,0.77
same,phosphorylation enrichment,FGFR1,0.466
same,phosphorylation enrichment,AncSZ,1.14
same,phosphorylation enrichment,Fyn,0.444
same,phosphorylation enrichment,c-Abl (mouse),0.963
same,phosphorylation enrichment,Hck,0.469
same,phosphorylation enrichment,Fes,1.36
same,SH2 binding enrichment,Grb2 SH2,0.838
same,SH2 binding enrichment,SHP2-C SH2,0.661
same,SH2 binding enrichment,c-Src SH2,0.373
HLELNYKEDEF [MME_Y502_Y497H_YF],phosphorylation enrichment,Fer (mouse),0.64
same,phosphorylation enrichment,EPHB1,0.594
same,phosphorylation enrichment,MERTK,0.589
same,phosphorylation enrichment,c-Src,0.43
same,phosphorylation enrichment,EPHB2,0.504
same,phosphorylation enrichment,Jak2,0.903
same,phosphorylation enrichment,FGFR3,1.48
same,phosphorylation enrichment,FGFR1,1.08
same,phosphorylation enrichment,AncSZ,0.993
same,phosphorylation enrichment,Fyn,0.557
same,phosphorylation enrichment,c-Abl (mouse),0.749
same,phosphorylation enrichment,Hck,0.565
same,phosphorylation enrichment,Fes,0.967
same,SH2 binding enrichment,Grb2 SH2,0.905
same,SH2 binding enrichment,SHP2-C SH2,0.392
same,SH2 binding enrichment,c-Src SH2,0.697
CGTPDYIAREI [PRKCG_Y521_P524R],phosphorylation enrichment,Fer (mouse),0.604
same,phosphorylation enrichment,EPHB1,0.724
same,phosphorylation enrichment,MERTK,0.445
same,phosphorylation enrichment,c-Src,0.443
same,phosphorylation enrichment,EPHB2,0.622
same,phosphorylation enrichment,Jak2,1.06
same,phosphorylation enrichment,FGFR3,0.866
same,phosphorylation enrichment,FGFR1,0.633
same,phosphorylation enrichment,AncSZ,1.26
same,phosphorylation enrichment,Fyn,0.53
same,phosphorylation enrichment,c-Abl (mouse),0.849
same,phosphorylation enrichment,Hck,0.631
same,phosphorylation enrichment,Fes,1.13
same,SH2 binding enrichment,Grb2 SH2,0.793
same,SH2 binding enrichment,SHP2-C SH2,0.631
same,SH2 binding enrichment,c-Src SH2,0.452
VMSGPYNLKAL [IL1B_Y140_E141N],phosphorylation enrichment,Fer (mouse),0.508
same,phosphorylation enrichment,EPHB1,0.534
same,phosphorylation enrichment,MERTK,0.507
same,phosphorylation enrichment,c-Src,0.758
same,phosphorylation enrichment,EPHB2,0.475
same,phosphorylation enrichment,Jak2,0.959
same,phosphorylation enrichment,FGFR3,0.556
same,phosphorylation enrichment,FGFR1,0.569
same,phosphorylation enrichment,AncSZ,0.888
same,phosphorylation enrichment,Fyn,0.596
same,phosphorylation enrichment,c-Abl (mouse),0.643
same,phosphorylation enrichment,Hck,0.473
same,phosphorylation enrichment,Fes,0.765
same,SH2 binding enrichment,Grb2 SH2,0.886
same,SH2 binding enrichment,SHP2-C SH2,0.622
same,SH2 binding enrichment,c-Src SH2,0.545
KNCFKYFMSDD [ATRX_Y203_YF],phosphorylation enrichment,Fer (mouse),0.589
same,phosphorylation enrichment,EPHB1,0.639
same,phosphorylation enrichment,MERTK,0.556
same,phosphorylation enrichment,c-Src,0.646
same,phosphorylation enrichment,EPHB2,0.714
same,phosphorylation enrichment,Jak2,1.27
same,phosphorylation enrichment,FGFR3,0.84
same,phosphorylation enrichment,FGFR1,0.604
same,phosphorylation enrichment,AncSZ,1.37
same,phosphorylation enrichment,Fyn,0.453
same,phosphorylation enrichment,c-Abl (mouse),1.02
same,phosphorylation enrichment,Hck,0.556
same,phosphorylation enrichment,Fes,1.45
same,SH2 binding enrichment,Grb2 SH2,0.803
same,SH2 binding enrichment,SHP2-C SH2,0.529
same,SH2 binding enrichment,c-Src SH2,0.546
GTYVIYVRFGG [FLNB_Y1687],phosphorylation enrichment,Fer (mouse),0.516
same,phosphorylation enrichment,EPHB1,0.604
same,phosphorylation enrichment,MERTK,0.498
same,phosphorylation enrichment,c-Src,0.752
same,phosphorylation enrichment,EPHB2,0.696
same,phosphorylation enrichment,Jak2,1.04
same,phosphorylation enrichment,FGFR3,0.736
same,phosphorylation enrichment,FGFR1,0.511
same,phosphorylation enrichment,AncSZ,1.22
same,phosphorylation enrichment,Fyn,0.62
same,phosphorylation enrichment,c-Abl (mouse),0.868
same,phosphorylation enrichment,Hck,0.597
same,phosphorylation enrichment,Fes,1.32
same,SH2 binding enrichment,Grb2 SH2,1.1
same,SH2 binding enrichment,SHP2-C SH2,0.782
same,SH2 binding enrichment,c-Src SH2,0.533
WYQTKYEELQI [KRT6B_Y360],phosphorylation enrichment,Fer (mouse),0.614
same,phosphorylation enrichment,EPHB1,0.454
same,phosphorylation enrichment,MERTK,0.437
same,phosphorylation enrichment,c-Src,0.552
same,phosphorylation enrichment,EPHB2,0.639
same,phosphorylation enrichment,Jak2,1.15
same,phosphorylation enrichment,FGFR3,0.727
same,phosphorylation enrichment,FGFR1,0.503
same,phosphorylation enrichment,AncSZ,1.11
same,phosphorylation enrichment,Fyn,0.474
same,phosphorylation enrichment,c-Abl (mouse),0.741
same,phosphorylation enrichment,Hck,0.649
same,phosphorylation enrichment,Fes,1.23
same,SH2 binding enrichment,Grb2 SH2,0.798
same,SH2 binding enrichment,SHP2-C SH2,1.2
same,SH2 binding enrichment,c-Src SH2,5.9
TAVNGYAFGGG [ECHS1_Y137_A132T],phosphorylation enrichment,Fer (mouse),0.62
same,phosphorylation enrichment,EPHB1,0.417
same,phosphorylation enrichment,MERTK,0.462
same,phosphorylation enrichment,c-Src,0.561
same,phosphorylation enrichment,EPHB2,0.531
same,phosphorylation enrichment,Jak2,0.737
same,phosphorylation enrichment,FGFR3,0.922
same,phosphorylation enrichment,FGFR1,0.404
same,phosphorylation enrichment,AncSZ,0.558
same,phosphorylation enrichment,Fyn,0.593
same,phosphorylation enrichment,c-Abl (mouse),0.592
same,phosphorylation enrichment,Hck,0.419
same,phosphorylation enrichment,Fes,0.723
same,SH2 binding enrichment,Grb2 SH2,0.683
same,SH2 binding enrichment,SHP2-C SH2,0.093
same,SH2 binding enrichment,c-Src SH2,0.399
GNLLIYTKFGK [HGD_Y166_E168K],phosphorylation enrichment,Fer (mouse),0.532
same,phosphorylation enrichment,EPHB1,0.921
same,phosphorylation enrichment,MERTK,0.991
same,phosphorylation enrichment,c-Src,2.02
same,phosphorylation enrichment,EPHB2,0.666
same,phosphorylation enrichment,Jak2,1.26
same,phosphorylation enrichment,FGFR3,0.788
same,phosphorylation enrichment,FGFR1,0.572
same,phosphorylation enrichment,AncSZ,1.31
same,phosphorylation enrichment,Fyn,1.46
same,phosphorylation enrichment,c-Abl (mouse),1.5
same,phosphorylation enrichment,Hck,1.36
same,phosphorylation enrichment,Fes,1.28
same,SH2 binding enrichment,Grb2 SH2,0.666
same,SH2 binding enrichment,SHP2-C SH2,0.755
same,SH2 binding enrichment,c-Src SH2,0.571
